Among the data in article PMC2895659 are reduction of luciferase reporter virus infection of Lunet N hCD81 cells after preincubation with 10 µg/ml hCD81 LEL values, retold here.

The target in assay [1] is E1/E2 glycoprotein complex of Jc1/mCD81 (Jc1 carrying L216F, V388G and M405T) on HCV particles (hepatitis C virus genotype 2a (J6CF)) (UniProt P26660).
For assay [2], the target named is E1/E2 glycoprotein complex of Jc1/G451R (Jc1 with a single G451R mutation within E2) on HCV particles (hepatitis C virus genotype 2a (J6CF)) (UniProt P26660).

For the substance “recombinant fusion protein between GST and the human CD81 large extracellular loop (LEL) (domain or fragment)”, the reduction of luciferase reporter virus infection of Lunet N hCD81 cells after preincubation with 10 µg/ml hCD81 LEL in assay [1] and in assay [2] was above 10 fold in each case.
